# Measured values reported in patent publication US5770191, “Active C-terminal peptides of interferon--gamma and their use” (University of Florida, dated 1998).
# T1: murine IFNγ receptor (murine, UniProt P15261)
# T1 sequence: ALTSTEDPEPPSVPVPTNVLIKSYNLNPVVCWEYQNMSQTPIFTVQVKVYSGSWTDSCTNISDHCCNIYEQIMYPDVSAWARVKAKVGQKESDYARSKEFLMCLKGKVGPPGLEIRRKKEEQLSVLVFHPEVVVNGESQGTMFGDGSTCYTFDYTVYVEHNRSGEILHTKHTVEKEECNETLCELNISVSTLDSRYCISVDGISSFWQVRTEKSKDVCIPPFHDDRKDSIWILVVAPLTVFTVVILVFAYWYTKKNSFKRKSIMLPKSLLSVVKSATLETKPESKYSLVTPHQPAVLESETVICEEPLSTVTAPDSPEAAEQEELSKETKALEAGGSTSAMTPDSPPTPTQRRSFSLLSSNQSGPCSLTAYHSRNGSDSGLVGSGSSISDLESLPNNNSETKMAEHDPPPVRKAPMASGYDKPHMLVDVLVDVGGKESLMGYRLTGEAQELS
# Biological target: T1, murine IFNγ receptor
# Assay: cell-based or functional assay
row,Binder,"Ia (MHC class II) expression on P388D1 cells by FACS, peptide at 100 µM, 24 hours"
1,AKFEVNNPQVQRQAFNELIRVVHQLLPESSLRKRKRSRC [muIFNγ (95-133)],10 fold
2,LTNYSVTDLNVQRKAIHELIQVMAELSPAAKTGKRKRSQM [huIFNγ (95-134)],10 fold
